For experiment [1], the target named is human αvβ8 endogenously expressed on cells (human).
For experiment [2] the target is unchanged. The experiment in a line: cell-based or functional assay.
The target of experiment [3] is recombinant human αvβ8 protein (PARS-17102) (human). The experiment in a line: SPR, Biacore T200, anti-murine Fc capture (murine Fc format), human αvβ8 analyte 0-50 nM, 37 C, 1:1 model (FIG. 10). A general note: Surface plasmon resonance follows binding to a sensor surface in real time, without labels.
For experiment [4] the target is unchanged. The experiment in a line: SPR, Biacore kinetic screen at 37 °C, 1:1 binding fit; antibody as ligand, hu.aVb8-17102 as sample; in the presence of divalent cations according to.
The target is the same in experiment [5]. The experiment in a line: SPR, Biacore T200, anti-murine Fc capture (murine Fc format), human αvβ8 analyte 0-50 nM, 37 C, 1:1 model (FIG. 10); below the instrument's detection limit.
Experiment [6] addresses T1, recombinant human αvβ8 protein (PARS-17102) (human).
T1 construct: also called hu.aVb8.17102; not shown: C-terminal acid/basic coils and any purification tags
T1 alpha: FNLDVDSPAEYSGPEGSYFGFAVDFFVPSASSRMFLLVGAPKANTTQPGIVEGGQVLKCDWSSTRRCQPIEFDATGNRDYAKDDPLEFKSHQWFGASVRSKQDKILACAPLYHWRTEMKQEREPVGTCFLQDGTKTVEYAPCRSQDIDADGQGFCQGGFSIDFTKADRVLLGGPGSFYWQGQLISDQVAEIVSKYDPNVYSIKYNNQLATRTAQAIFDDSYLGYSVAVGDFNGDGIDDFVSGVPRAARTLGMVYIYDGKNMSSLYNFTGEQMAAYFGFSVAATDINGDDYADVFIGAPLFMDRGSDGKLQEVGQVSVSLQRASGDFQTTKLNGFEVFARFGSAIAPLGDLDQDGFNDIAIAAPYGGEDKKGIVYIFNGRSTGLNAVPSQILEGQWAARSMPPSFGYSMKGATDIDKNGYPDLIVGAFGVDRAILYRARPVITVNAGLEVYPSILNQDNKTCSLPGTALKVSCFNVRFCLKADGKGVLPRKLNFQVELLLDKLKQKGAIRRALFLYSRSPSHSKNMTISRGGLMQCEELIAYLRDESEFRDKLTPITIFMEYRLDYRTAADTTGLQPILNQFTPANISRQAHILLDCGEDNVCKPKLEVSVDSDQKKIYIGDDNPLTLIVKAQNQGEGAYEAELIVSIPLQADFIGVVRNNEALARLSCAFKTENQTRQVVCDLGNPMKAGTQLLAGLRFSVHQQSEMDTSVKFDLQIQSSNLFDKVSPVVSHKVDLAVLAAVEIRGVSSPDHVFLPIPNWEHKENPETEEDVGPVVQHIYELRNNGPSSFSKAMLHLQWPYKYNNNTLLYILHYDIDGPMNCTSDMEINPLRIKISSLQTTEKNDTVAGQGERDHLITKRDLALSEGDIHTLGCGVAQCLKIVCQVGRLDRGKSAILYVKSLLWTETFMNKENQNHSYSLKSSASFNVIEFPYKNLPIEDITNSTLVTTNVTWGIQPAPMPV
T1 beta: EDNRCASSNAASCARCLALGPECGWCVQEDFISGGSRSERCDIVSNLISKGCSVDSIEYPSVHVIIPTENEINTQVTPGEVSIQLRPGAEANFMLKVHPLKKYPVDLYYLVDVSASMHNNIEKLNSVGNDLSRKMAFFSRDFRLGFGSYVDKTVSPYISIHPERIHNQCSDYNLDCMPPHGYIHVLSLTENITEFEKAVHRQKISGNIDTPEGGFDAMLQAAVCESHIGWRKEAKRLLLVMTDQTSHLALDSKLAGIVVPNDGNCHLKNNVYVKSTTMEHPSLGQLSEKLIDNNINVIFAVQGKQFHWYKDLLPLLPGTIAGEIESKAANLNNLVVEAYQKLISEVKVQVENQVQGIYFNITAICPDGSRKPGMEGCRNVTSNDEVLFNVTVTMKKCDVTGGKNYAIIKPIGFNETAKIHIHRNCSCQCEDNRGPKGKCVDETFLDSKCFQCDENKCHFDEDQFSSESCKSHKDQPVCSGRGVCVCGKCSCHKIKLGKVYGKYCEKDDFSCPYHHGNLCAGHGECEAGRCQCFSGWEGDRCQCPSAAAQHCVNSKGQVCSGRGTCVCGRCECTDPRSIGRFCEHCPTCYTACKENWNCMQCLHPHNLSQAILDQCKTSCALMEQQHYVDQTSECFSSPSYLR
The experiment in a line: SPR, Biacore T200, antibody captured on protein A chip, aVb8 as analyte, 37 C, 1:1 Langmuir model. As for the experimental part:
(§1) The binding affinity of the antibodies was determined by BIAcore™ T200 machine. For kinetics measurements, antibodies were captured on research grade protein A chip (Cytiva, USA) to achieve approximately 60 RU. Ten-fold serial dilutions of human, murine and cyno aVb8 were injected in the same running buffer as above at 37° C. with a flow rate of 100 μL/min. Association rates (ka) and dissociation rates (kd) were calculated using a 1:1 Langmuir binding model (BIAcore™ T200 Evaluation Software version 2.0). The equilibrium dissociation constant (KD) was calculated as the ratio kd/ka. […]

In experiment [7] the target is T2, recombinant mouse αvβ8 protein (PARS-17103) (murine, UniProt P43406 31-988; Q0VBD0 43-681, limits assumed).
T2 construct: Made in house; also called mu.aVb8.17103
T2 sequence (P43406 31-988 limits assumed, chain 1 of 2): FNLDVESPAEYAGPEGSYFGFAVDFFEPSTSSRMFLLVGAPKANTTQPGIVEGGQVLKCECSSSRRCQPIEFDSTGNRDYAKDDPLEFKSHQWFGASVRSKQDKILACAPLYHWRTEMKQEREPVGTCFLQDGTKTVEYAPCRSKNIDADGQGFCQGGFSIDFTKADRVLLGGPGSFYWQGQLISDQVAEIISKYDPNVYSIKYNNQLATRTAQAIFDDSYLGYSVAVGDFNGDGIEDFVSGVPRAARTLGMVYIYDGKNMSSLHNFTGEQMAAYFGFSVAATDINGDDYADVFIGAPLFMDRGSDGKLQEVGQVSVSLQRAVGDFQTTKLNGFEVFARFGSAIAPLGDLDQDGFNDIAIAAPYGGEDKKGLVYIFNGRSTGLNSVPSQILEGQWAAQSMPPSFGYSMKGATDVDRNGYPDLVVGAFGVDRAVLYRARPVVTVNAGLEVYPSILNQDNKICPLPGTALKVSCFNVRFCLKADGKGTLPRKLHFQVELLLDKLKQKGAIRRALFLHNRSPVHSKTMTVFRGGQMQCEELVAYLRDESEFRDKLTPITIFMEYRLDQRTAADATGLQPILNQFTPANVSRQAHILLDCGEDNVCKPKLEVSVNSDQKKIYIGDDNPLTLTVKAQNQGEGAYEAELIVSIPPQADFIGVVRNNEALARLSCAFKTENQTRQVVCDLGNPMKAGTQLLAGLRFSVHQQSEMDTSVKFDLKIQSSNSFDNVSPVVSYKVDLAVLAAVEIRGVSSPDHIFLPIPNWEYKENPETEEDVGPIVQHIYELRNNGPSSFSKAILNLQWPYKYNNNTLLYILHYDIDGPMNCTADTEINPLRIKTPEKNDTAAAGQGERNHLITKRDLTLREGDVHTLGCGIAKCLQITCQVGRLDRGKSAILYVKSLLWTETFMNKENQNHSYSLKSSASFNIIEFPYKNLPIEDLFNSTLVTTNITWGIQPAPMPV
T2 sequence (Q0VBD0 43-681 limits assumed, chain 2 of 2): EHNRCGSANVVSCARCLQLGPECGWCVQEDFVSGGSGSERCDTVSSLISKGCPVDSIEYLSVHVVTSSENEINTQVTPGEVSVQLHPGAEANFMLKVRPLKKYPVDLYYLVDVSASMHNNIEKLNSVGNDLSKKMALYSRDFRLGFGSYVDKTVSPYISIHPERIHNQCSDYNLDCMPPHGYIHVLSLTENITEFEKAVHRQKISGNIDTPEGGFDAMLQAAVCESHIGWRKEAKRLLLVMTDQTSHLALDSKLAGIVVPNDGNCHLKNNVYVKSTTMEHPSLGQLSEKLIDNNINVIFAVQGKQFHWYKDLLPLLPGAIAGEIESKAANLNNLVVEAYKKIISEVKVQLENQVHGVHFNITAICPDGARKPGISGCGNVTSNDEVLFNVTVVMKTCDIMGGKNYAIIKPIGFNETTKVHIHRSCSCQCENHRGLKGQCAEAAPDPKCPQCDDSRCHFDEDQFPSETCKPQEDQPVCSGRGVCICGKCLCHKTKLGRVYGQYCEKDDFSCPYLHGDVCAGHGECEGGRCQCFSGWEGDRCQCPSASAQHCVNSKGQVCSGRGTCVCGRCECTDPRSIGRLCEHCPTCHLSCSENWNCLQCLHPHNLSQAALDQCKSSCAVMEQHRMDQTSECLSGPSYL
The experiment is described as above. As for the experimental part:
as §1

A further experiment deals with T3, cyno.aVb8.13650 (cynomolgus, UniProt A0A2K5WCD3 31-992; G7P0S0 43-684).
T3 construct: Carries another lot/construct number than cyno.aVb8-19393; kept apart; also called cynomolgus αvβ8
The experiment is described as above. The protocol: as §1

The target in experiment [8] is T1, recombinant human αvβ8 protein …. The experiment in a line: SPR, Biacore kinetic screen at 37 °C, 1:1 binding fit flagged with a warning sign; antibody as ligand, hu.aVb8-17102 as sample; in the presence of divalent cations according to.
For experiment [9] the target is unchanged. The experiment in a line: SPR, Biacore kinetic screen at 37 °C, 1:1 binding fit; antibody as ligand, hu.aVb8-17102 as sample; in the presence of divalent cations according to.

Where only a bound is given, the exact number is not on record here.

Molecule C6D4 mIgG2a.LALAPG (antibody) registered an IC50 of the TGFb1 reporter signal, co-culture of LN-229 cells with 3T3-Nano GARP/LTGFb1 reporter cells in [1] of 2.11 nM. In addition, in experiment [2], the IC50 (nM), experiment #1: LN-229 + 3T3-Nano-human GARP/LTGFβ1 (WT) co-culture, NanoLuc reporter came out at 0.63 nM; the IC50 (nM), experiment #2: LN-229 + 3T3-Nano-human GARP/LTGFβ1 (WT) co-culture, NanoLuc reporter was determined as 1.45 nM; the IC50 (nM), experiment #3: LN-229 + 3T3-Nano-human GARP/LTGFβ1 (non-releasable, NR) co-culture, NanoLuc reporter was determined as 0.24 nM; the IC50 (nM), experiment #4: LN-229 + 3T3-Nano-human GARP/LTGFβ3 (WT) co-culture, NanoLuc reporter was found to be 0.78 nM. In addition, in [3], the Kd is 1.06 nM, the koff came out at 9.3e-05 s⁻¹ and the kon worked out at 87800 M⁻¹ s⁻¹. Besides, in experiment [4], the Kd is 3.8 nM, the koff was determined as 0.000266 s⁻¹ and the kon was 69900 M⁻¹ s⁻¹.
Turning to ADWA11 mIgG2a.LALAPG (antibody), in experiment [2], the IC50 (nM), experiment #1: LN-229 + 3T3-Nano-human GARP/LTGFβ1 (WT) co-culture, NanoLuc reporter stood at 0.95 nM; the IC50 (nM), experiment #2: LN-229 + 3T3-Nano-human GARP/LTGFβ1 (WT) co-culture, NanoLuc reporter came out at 1.51 nM; the IC50 (nM), experiment #3: LN-229 + 3T3-Nano-human GARP/LTGFβ1 (non-releasable, NR) co-culture, NanoLuc reporter was 0.34 nM; the IC50 (nM), experiment #4: LN-229 + 3T3-Nano-human GARP/LTGFβ3 (WT) co-culture, NanoLuc reporter is 0.79 nM. In [3], the Kd amounted to 0.451 nM, the koff was found to be 5.33e-05 s⁻¹ and the kon was found to be 118000 M⁻¹ s⁻¹.
On to Isotype control (antibody), for which, in experiment [2], the IC50 (nM), experiment #1: LN-229 + 3T3-Nano-human GARP/LTGFβ1 (WT) co-culture, NanoLuc reporter was greater than 333 nM; the IC50 (nM), experiment #2: LN-229 + 3T3-Nano-human GARP/LTGFβ1 (WT) co-culture, NanoLuc reporter was greater than 333 nM; the IC50 (nM), experiment #3: LN-229 + 3T3-Nano-human GARP/LTGFβ1 (non-releasable, NR) co-culture, NanoLuc reporter is greater than 333 nM; the IC50 (nM), experiment #4: LN-229 + 3T3-Nano-human GARP/LTGFβ3 (WT) co-culture, NanoLuc reporter is greater than 333 nM.

B1: αvβ8-65 in the murine Fc format (antibody, V domains shown)
VH: EVQLLESGGGLVQPGGSLRLSCAASGIDLSNYAMIWVRQAPGKGLEWVGIISSSDRIWYASWVKGRFTISRDNSKNTLYLQMNSLRAEDTAVYYCSRSVSNSYFDGWNLWGQGTLVTVSS
VL: DIQMTQSPSSVSASVGDRVTITCQASENINSLLAWYQQKPGKAPKLLIYRASTLASGVPSRFSGSGSGTDFTLTISSLQPEDFATYYCQSNYGFTGSGAFFYGFGQGTKVEIK
On to B1, for which, in experiment [3], the Kd is less than 0.0258 nM and the kon was 258000 M⁻¹ s⁻¹. The koff in experiment [5] is less than 1e-05 s⁻¹.

B2: Rb.aVb8-92 (antibody, V domains shown)
VH: QSVEESGGRLVTPGTPLTLTCTVSGFSLSSYAMGWVRQAPGKGLEWIGVIRKDDNTYYGNWAKGRFTISRTSTTVDLKMTSLTAADTATYFCARALNTYVGFPYFNIWGPGTLVTVSS
VL: AAVLTQTPSPVSAAVGGTVSISCQSIKSVGDNKWLAWYQQKPGQPPKLLIYDASDLASGVPSRFKGSGSRTQFTLTISDLQCDDAATYYCAGSVSSGDSGFGGGTEVVVA
notes: Recombinant rabbit monoclonal antibody expressed in Expi293 cells; also called rb.αvβ8-92; rabbit αvβ8-92
B2: the Kd in experiment [6] is 1.6 nM; in experiment [7] it was 1.86 nM; with cyno.aVb8.13650, 6.91 nM; in [8], 671 nM. The koff was found to be 0.000164 s⁻¹ in experiment [6], 0.000184 s⁻¹ in experiment [7], 0.000293 s⁻¹ with cyno.aVb8.13650 and 0.000777 s⁻¹ in experiment [8]. The kon in experiment [6] is 102000 M⁻¹ s⁻¹; in experiment [7] it was 98600 M⁻¹ s⁻¹; with cyno.aVb8.13650, 42400 M⁻¹ s⁻¹; in [8], 1160 M⁻¹ s⁻¹.

B3: Rb.aVb8-65 (antibody, V domains shown)
VH: QSVEESGGRLVTPGTPLTLTCTVSGIDLSNYAMIWVRQAPGKGLEWIGIISSSDRIWYASWVKGRFTISKTSSTTVDLQMTSLTTEDTATYFCSRSVSNSYFDGWNLWGPGTLVTVSS
VL: DIVMTQTPASVEAAVGGTVTIKCQASENINSLLAWYQQKPGQPPKLLIYRASTLASGVPSRFRGSGSGTQFTLTISDLECDDAATYYCQSNYGFTGSGAFFYGFGGGTEVVVE
notes: Recombinant rabbit monoclonal antibody expressed in Expi293 cells; also called rb.αvβ8-65; rabbit αvβ8-65
With B3, the Kd in experiment [6] came out at 0.7 nM; in [7], 0.9 nM; in the experiment with cyno.aVb8.13650, 1.94 nM; in experiment [9], 1.54 nM. The koff in [6] stood at 0.000131 s⁻¹; in experiment [7] it was 0.000132 s⁻¹; in the experiment with cyno.aVb8.13650 it was 0.000121 s⁻¹; in experiment [9], 0.000349 s⁻¹. Besides, the kon was found to be 187000 M⁻¹ s⁻¹ in experiment [6], 146000 M⁻¹ s⁻¹ in experiment [7], 62400 M⁻¹ s⁻¹ in the experiment with cyno.aVb8.13650 and 227000 M⁻¹ s⁻¹ in experiment [9].

Usually Kd stands for the constant that tells how readily two partners part at equilibrium. The koff is a measure of how fast the partners let go of each other. As usually defined, the kon is the rate constant with which the complex forms.

Values taken from patent US20240327522A1 (Genentech, published 2024).
